Test results: patent US5661003A, “Water channel” (Marumo; Fumiaki, priority 1992, dated 1997)

Key:
WCH-1 water channel = target: T1, WCH-1 water channel (Rattus norvegicus, UniProt P34080); experiment: Effect of mercurial sulfhydryl reagent and reducing agent on Pf of WCH-1-injected oocytes; assay type: cell-based
T1 construct: The longest open reading frame encodes a 271-amino acid protein (Mr 28928); expressed in transfected cells; host or cells: Xenopus laevis oocytes injected with cRNA transcribed from WCH-1 in pSPORT
T1 sequence (P34080 1-271): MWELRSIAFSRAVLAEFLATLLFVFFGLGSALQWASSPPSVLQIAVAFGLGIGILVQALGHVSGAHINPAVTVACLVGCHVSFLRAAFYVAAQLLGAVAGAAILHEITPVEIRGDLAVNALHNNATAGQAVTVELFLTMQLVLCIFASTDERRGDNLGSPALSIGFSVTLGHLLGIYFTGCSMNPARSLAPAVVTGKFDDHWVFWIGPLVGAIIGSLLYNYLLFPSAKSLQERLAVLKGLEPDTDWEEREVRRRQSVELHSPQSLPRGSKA
Protocol: (§1) Capped cRNA was synthesized from WCH-1 in pSPORT vector using T7 RNA polymerase after linearization of the pSPORT vector. Oocytes were obtained from female Xenopus laevis and prepared as described in Dascal, N. CRC Crit. Rev. Biochem. 22, 317-373 (1987), then injected with […] or 20 ng of WCH-1 RNA (1 μg/μL) and incubated at 18° C. […] Oocytes were viewed by light transmitted through an Olympus phase-contrast microscope and imaged on a Hamamatsu SIT camera connected to ARGUS-200 image processing system. Images were obtained and stored at 20-s intervals.
(§2) Osmotic water permeability (Pf) was determined from an initial slope of a time curve of V/Vo (d (V/Vo)/dt), initial oocyte volume (Vo =9×10^-4 cm^3), initial oocyte surface area (S=0.045 cm^2), the molar volume of water (Vw =18 cm^3 /mol) by:
(§3) Pf=[Vo×d (V/Vo)/dt]/[S×Vw ×(osmin
To examine the effects of mercurial sulfhydryl reagents, oocytes were incubated in Barth's buffer containing 0.3 mM HgCl2 for 5 minutes prior to Pf measurements. The recovery of the inhibition by reducing agents was examined by 15 minutes incubation in a Barth's buffer containing 5 mM β-mercaptoethanol following 5-minute incubation in HgCl2.

Xenopus oocytes = experiment: Osmotic water permeability of Xenopus oocytes injected with WCH-1 RNA (videomicroscopy of osmotic volume increase); assay type: cell-based, Xenopus laevis
Protocol: To determine the osmic water permeability of oocytes injected with the WCH-1 transcript, volume increase caused by an imposed osmotic gradient was measured using videomicroscopy (Zhang, R. & Verkman, A. S. Am. J. Physiol. 260, C26-C34 (1991)).
as §1
Oocytes images were processed as described in Zhang, R. & Verkman, A. S. Am. J. Physiol. 260, C26-C34 (1991) and the projection area of the oocytes was calculated by automatic summation. Relative volume (V/Vo) was calculated from the area at time 0 (Ao) and at time t (A) by:
as §2, §3

Molecule: OCCS [B-mercaptoethanol, β-mercaptoethanol]
- Pf in WCH-1-injected oocytes after recovery with reducing agent (WCH-1 water channel; 5 mM mercaptoethanol for 15 minutes following incubation in 0.3 mM HgCl2): 63.1±25.8 ×10^-4 cm/sec

Molecule: [Cl][Hg][Cl] [HgCl2]
- Pf in WCH-1-injected oocytes after incubation in HgCl2 (WCH-1 water channel; 0.3 mM HgCl2, five minutes, Pf without HgCl2 83.9±18.2): 44.5±3.6 ×10^-4 cm/sec

B1: WCH-1: vasopressin-regulated water channel localized in the kidney collecting tubule; expressed in oocytes by injection of its capped cRNA (protein, UniProt P34080 1-271, looked up)
Aquaporin-2: MWELRSIAFSRAVLAEFLATLLFVFFGLGSALQWASSPPSVLQIAVAFGLGIGILVQALGHVSGAHINPAVTVACLVGCHVSFLRAAFYVAAQLLGAVAGAAILHEITPVEIRGDLAVNALHNNATAGQAVTVELFLTMQLVLCIFASTDERRGDNLGSPALSIGFSVTLGHLLGIYFTGCSMNPARSLAPAVVTGKFDDHWVFWIGPLVGAIIGSLLYNYLLFPSAKSLQERLAVLKGLEPDTDWEEREVRRRQSVELHSPQSLPRGSKA
- Pf in WCH-1-injected oocytes relative to Pf in water-injected oocytes (Xenopus oocytes; WCH-1-injected vs water-injected oocytes): 3.5 times
- Osmotic water permeability (Pf) (Xenopus oocytes; oocytes injected with 20 ng WCH-1 RNA, 24 h incubation, transfer from 200 mOsm to 70 mOsm Barth's buffer, 24° C., mean±SEM): 83.9±18.2 ×10^-4 cm/s
- Oocytes ruptured after transfer into the hypotonic solution (Xenopus oocytes; within 10 minutes, none of water-injected oocytes ruptured for more than 60 minutes): ten out of eleven
